The record followed here is article PMC11032371 (Cell Death Discovery, 2024).

Data set [1] deals with the molecule itself. The experiment in a line: SEC; analytical size exclusion, Superose 12 10/300; 50 mM HEPES pH 8.5, 150 mM NaCl, 1 mM DTT, 0.5% Triton X-100. (Size exclusion chromatography separates by hydrodynamic size, large species first.)
The target of data set [2] is T1, monoUb (UniProt P0CG48 1-76).
T1 construct: ubiquitin; 15N-labelled in some NMR titrations; also called ubiquitin
The experiment in a line: SPR; Biacore S200; TF-N4BP1 fragment amine-coupled to a CM5 chip, mono- and diUb flowed over at 30 μl/min; HBS-P+ (10 mM HEPES pH 7.4, 150 mM NaCl, 0.05% Tween 20), 25 °C; KD from plateau levels. The note with it: both partners purified.

Data set [3] concerns the target T2, M1-diUb (UniProt P0CG48 1-76; P0CG48 1-76).
T2 construct: ubiquitin, distal unit of M1-linked (linear) diUb; ubiquitin, proximal unit of M1-linked (linear) diUb; also called M1-linked diUb; linear diUb
The data set is described as above. The note with it: both partners purified.

For data set [4], the target named is T1, monoUb. The data set can be described thus: ITC; 293 K; 50 mM HEPES pH 7.4, 50 mM NaCl, 0.5 mM TCEP; cell 50–100 μM, syringe usually 10-fold; 20 injections of 2 μl; averages of at least two experiments; which partner was in the syringe not stated. The note with it: both partners purified. In general terms: ITC needs no label: the signal is the heat of the interaction.

Data set [5] has as its target T2, M1-diUb. The description is as above. The conditions noted are these: both partners purified.

B1: N4BP1 (613-774), from pCold-I, His-tagged (domain or fragment, mouse, UniProt Q6A037 613-774, looked up)
chain: ADLKHIVIDGSNVAITHGLKKFFSCRGIAIAVEYFWKLGNRNITVFVPQWRTRRDPNITEQHFLTQLQELGILSLTPARMVFGERIASHDDRFLLHLADKTGGIIVTNDNFREFVTESVSWREIITKRLLQYTFVGDIFMVPDDPLGRNGPRLEEFLRKEAF
notes: N4BP1, mouse, RNase domain, residues 613-774; source: E. coli BL21, purified
On to B1, for which the binding result in data set [1] is recorded as “binds”.

B2: TF-N4BP1 (613–893) (domain or fragment, mouse, UniProt Q6A037 613-893, looked up)
chain: ADLKHIVIDGSNVAITHGLKKFFSCRGIAIAVEYFWKLGNRNITVFVPQWRTRRDPNITEQHFLTQLQELGILSLTPARMVFGERIASHDDRFLLHLADKTGGIIVTNDNFREFVTESVSWREIITKRLLQYTFVGDIFMVPDDPLGRNGPRLEEFLRKEAFLRHMQPLLNALPSVGTFDPGFRSPSTQVANNSHQPPPRIQTSSSPWLPQQSHFTALATLPSMQQNPPLPAQRSSAETSELREALLKIFPDSEQKLKIDQILAAHPYMKDLNALSALVLD
notes: also called dimeric N4BP1
For the molecule B2, the Kd was 84.9 µM in the data set with monoUb [2] and 0.43 µM with M1-diUb [3].

B3: N4BP1 (613–893), from pCold-I, His-tagged (domain or fragment, mouse, UniProt Q6A037 613-893, looked up)
chain: ADLKHIVIDGSNVAITHGLKKFFSCRGIAIAVEYFWKLGNRNITVFVPQWRTRRDPNITEQHFLTQLQELGILSLTPARMVFGERIASHDDRFLLHLADKTGGIIVTNDNFREFVTESVSWREIITKRLLQYTFVGDIFMVPDDPLGRNGPRLEEFLRKEAFLRHMQPLLNALPSVGTFDPGFRSPSTQVANNSHQPPPRIQTSSSPWLPQQSHFTALATLPSMQQNPPLPAQRSSAETSELREALLKIFPDSEQKLKIDQILAAHPYMKDLNALSALVLD
notes: source: E. coli BL21, purified
For B3, the binding result in data set [1] is recorded as “binds”.

B4: N4BP1 (850–893) (domain or fragment, mouse, UniProt Q6A037 850-893, looked up)
chain: ETSELREALLKIFPDSEQKLKIDQILAAHPYMKDLNALSALVLD
notes: His-tag removed with 3C protease for ITC and NMR; 15N- or 15N/13C-labelled for NMR; also called isolated CUE domain; N4BP1 CUE domain; not shown: His-tag, N-terminal, cleaved
Take B4: in the data set with monoUb [4], binding was characterised by a dissociation constant (Kd) of 27.5 ± 5.6 µM, the dH was -5.2 kcal/mol and the “stoichiometry N” value came out at 0.915. In addition, in the data set with M1-diUb [5], the dH is -5.3 kcal/mol and the “stoichiometry N” value is 2.16. Moreover, the binding result in data set [1] is recorded as “binds”.

The Kd is the concentration at which binding is half-saturated. A higher Kd goes with lower affinity. Broadly, the stoichiometry N is the number of molecules, sites or subunits per partner or assembly.
